Source: patent US20260176254A1, “INHIBITORS OF PROSTATE SPECIFIC MEMBRANE ANTIGEN AND USE THEREOF” (SHANGHAI SINOTAU BIOTECH. CO., LTD, priority 2023, published 2026)

Experiments:
Parameters in all cases: species or system mice
[1] = system: 22RV1 CDX xenograft tumor; assay: Tissue biodistribution in 22Rv1 tumor mouse model; settings: male, nude, in vivo, iv
From the text: (§1) LnCAP and 22RV1 CDX xenograft tumor models were generated by inoculating 5×10^6 cells/site subcutaneously in male SCID or nude mice (Vital River), respectively. Animals were housed according to IACUC guidance and had accessed to food and water ad libitium. Animals were used for biodistribution study when the tumor dimensions reached around 0.2-0.3 cm^3. […] At each tome point, animals were sacrificed and tissues were collected, weighted, and subjected to radioactivity measurements using gamma counter. Radioactivity in the tissues was presented in % ID/g (percent of injected dose per gram).

[2] = Tissue biodistribution in 22Rv1 tumor mouse model; settings: male, nude, in vivo, iv, total radioactivity
From the text: as §1

[3] = system: LnCAP CDX xenograft tumor; assay: Tissue biodistribution in LnCAP tumor mouse model; settings: male, SCID, in vivo, iv
From the text: as §1

[4] = Tissue biodistribution in LnCAP tumor mouse model; settings: male, SCID, in vivo, iv, total radioactivity
From the text: as §1

[5] = T/NT ratio Tumor/Salivary Gland
[6] = Tissue biodistribution: Salivary Gland

O=C(O)CN1CCN(CC(=O)O)CCN(CC(=O)NC23CCC(Nc4c(N[C@@H](Cc5c6ccccc6cc6ccccc56)C(=O)NCCCC[C@H](NC(=O)N[C@@H](CNC(=O)C(=O)O)C(=O)O)C(=O)O)c(=O)c4=O)(CC2)CC3)CCN(CC(=O)O)CC1 [[^177Lu]Lu-E8, metal not drawn]
T/NT ratio Tumor/Blood [1]: 497.77
T/NT ratio Tumor/Salivary Gland [1]: 183.55
tissue uptake dose at 2 h [2]: 8.22 ± 0.38 %ID
tissue uptake dose at 6 h [2]: 5.13 ± 0.24 %ID
tissue uptake dose at 24 h [2]: 2.13 ± 0.07 %ID
tissue uptake dose at 72 h [2]: 0.81 ± 0.01 %ID
tissue uptake dose at 168 h [2]: 1.34 ± 0.01 %ID
tissue to tissue ratio ([2]; T/NT ratio Tumor/Blood): 570
tissue to tissue ratio [2, 5]: 201
tissue uptake at 2 h ([2]; Tissue biodistribution: Blood): 0.4 ± 0.14 %ID/g
tissue uptake at 6 h ([2]; Tissue biodistribution: Blood): 0.08 ± 0.04 %ID/g
tissue uptake at 24 h ([2]; Tissue biodistribution: Blood): 0.03 %ID/g
tissue uptake at 72 h ([2]; Tissue biodistribution: Blood): 0.02 %ID/g
tissue uptake at 168 h ([2]; Tissue biodistribution: Blood): 0.02 ± 0.01 %ID/g
tissue uptake at 2 h ([2]; Tissue biodistribution: Bone): 0.47 ± 0.09 %ID/g
tissue uptake at 6 h ([2]; Tissue biodistribution: Bone): 0.26 ± 0.03 %ID/g
tissue uptake at 24 h ([2]; Tissue biodistribution: Bone): 0.26 ± 0.04 %ID/g
tissue uptake at 72 h ([2]; Tissue biodistribution: Bone): 0.34 ± 0.01 %ID/g
tissue uptake at 168 h ([2]; Tissue biodistribution: Bone): 0.43 ± 0.1 %ID/g
tissue uptake at 2 h ([2]; Tissue biodistribution: Heart): 0.57 ± 0.28 %ID/g
tissue uptake at 6 h ([2]; Tissue biodistribution: Heart): 0.1 ± 0.01 %ID/g
tissue uptake at 24 h ([2]; Tissue biodistribution: Heart): 0.07 %ID/g
tissue uptake at 72 h ([2]; Tissue biodistribution: Heart): 0.07 ± 0.01 %ID/g
tissue uptake at 168 h ([2]; Tissue biodistribution: Heart): 0.08 ± 0.01 %ID/g
tissue uptake at 2 h ([2]; Tissue biodistribution: Kidney): 136 ± 16.7 %ID/g
tissue uptake at 6 h ([2]; Tissue biodistribution: Kidney): 56.5 ± 18.9 %ID/g
tissue uptake at 24 h ([2]; Tissue biodistribution: Kidney): 5.86 ± 1.87 %ID/g
tissue uptake at 72 h ([2]; Tissue biodistribution: Kidney): 0.99 ± 0.04 %ID/g
tissue uptake at 168 h ([2]; Tissue biodistribution: Kidney): 0.26 ± 0.01 %ID/g
tissue uptake at 2 h ([2]; Tissue biodistribution: Liver): 0.34 ± 0.07 %ID/g
tissue uptake at 6 h ([2]; Tissue biodistribution: Liver): 0.19 ± 0.03 %ID/g
tissue uptake at 24 h ([2]; Tissue biodistribution: Liver): 0.18 ± 0.05 %ID/g
tissue uptake at 72 h ([2]; Tissue biodistribution: Liver): 0.22 ± 0.01 %ID/g
tissue uptake at 168 h ([2]; Tissue biodistribution: Liver): 0.23 ± 0.08 %ID/g
tissue uptake at 2 h ([2]; Tissue biodistribution: Lung): 1.14 ± 0.31 %ID/g
tissue uptake at 6 h ([2]; Tissue biodistribution: Lung): 0.32 ± 0.11 %ID/g
tissue uptake at 24 h ([2]; Tissue biodistribution: Lung): 0.12 ± 0.02 %ID/g
tissue uptake at 72 h ([2]; Tissue biodistribution: Lung): 0.09 ± 0.01 %ID/g
tissue uptake at 168 h ([2]; Tissue biodistribution: Lung): 0.07 ± 0.02 %ID/g
tissue uptake at 2 h ([2]; Tissue biodistribution: Muscle): 0.23 ± 0.03 %ID/g
tissue uptake at 6 h ([2]; Tissue biodistribution: Muscle): 0.08 ± 0.01 %ID/g
tissue uptake at 24 h ([2]; Tissue biodistribution: Muscle): 0.03 %ID/g
tissue uptake at 72 h ([2]; Tissue biodistribution: Muscle): 0.02 %ID/g
tissue uptake at 168 h ([2]; Tissue biodistribution: Muscle): 0.03 ± 0.01 %ID/g
tissue uptake at 2 h [2, 6]: 0.57 ± 0.19 %ID/g
tissue uptake at 6 h [2, 6]: 0.2 ± 0.07 %ID/g
tissue uptake at 24 h [2, 6]: 0.08 %ID/g
tissue uptake at 72 h [2, 6]: 0.09 ± 0.01 %ID/g
tissue uptake at 168 h [2, 6]: 0.06 ± 0.01 %ID/g
tissue uptake at 2 h ([2]; Tissue biodistribution: Spleen): 6.44 ± 3.19 %ID/g
tissue uptake at 6 h ([2]; Tissue biodistribution: Spleen): 0.88 ± 0.26 %ID/g
tissue uptake at 24 h ([2]; Tissue biodistribution: Spleen): 0.28 ± 0.05 %ID/g
tissue uptake at 72 h ([2]; Tissue biodistribution: Spleen): 0.35 ± 0.01 %ID/g
tissue uptake at 168 h ([2]; Tissue biodistribution: Spleen): 0.39 ± 0.11 %ID/g
tissue uptake at 2 h ([2]; Tissue biodistribution: Tumor): 19.7 ± 9.31 %ID/g
tissue uptake at 6 h ([2]; Tissue biodistribution: Tumor): 18.8 ± 1.68 %ID/g
tissue uptake at 24 h ([2]; Tissue biodistribution: Tumor): 22.7 ± 7.83 %ID/g
tissue uptake at 72 h ([2]; Tissue biodistribution: Tumor): 24.3 ± 1.92 %ID/g
tissue uptake at 168 h ([2]; Tissue biodistribution: Tumor): 11.9 ± 4.35 %ID/g
tissue to tissue ratio at 2 h ([2]; Tumor/Blood): 62.7 ± 54.4
tissue to tissue ratio at 6 h ([2]; Tumor/Blood): 277 ± 98.9
tissue to tissue ratio at 24 h ([2]; Tumor/Blood): 754 ± 166
tissue to tissue ratio at 72 h ([2]; Tumor/Blood): 1120 ± 40
tissue to tissue ratio at 168 h ([2]; Tumor/Blood): 555 ± 353
tissue to tissue ratio at 2 h ([2]; Tumor/Bone): 41.5 ± 19.5
tissue to tissue ratio at 6 h ([2]; Tumor/Bone): 73.6 ± 6.68
tissue to tissue ratio at 24 h ([2]; Tumor/Bone): 87.2 ± 16.1
tissue to tissue ratio at 72 h ([2]; Tumor/Bone): 72.1 ± 4.85
tissue to tissue ratio at 168 h ([2]; Tumor/Bone): 27.7 ± 7.2
tissue to tissue ratio at 2 h ([2]; Tumor/Kidney): 0.15 ± 0.09
tissue to tissue ratio at 6 h ([2]; Tumor/Kidney): 0.35 ± 0.11
tissue to tissue ratio at 24 h ([2]; Tumor/Kidney): 3.97 ± 0.93
tissue to tissue ratio at 72 h ([2]; Tumor/Kidney): 24.5 ± 2.46
tissue to tissue ratio at 168 h ([2]; Tumor/Kidney): 45.6 ± 16.3
T/NT ratio Tumor/Bone [3]: 169.77
T/NT ratio Tumor/Salivary Gland [3]: 422.38
tissue uptake dose at 2 h [4]: 16.4 ± 1.14 %ID
tissue uptake dose at 6 h [4]: 4.69 ± 0.79 %ID
tissue uptake dose at 24 h [4]: 3.21 ± 2.01 %ID
tissue uptake dose at 72 h [4]: 0.99 ± 0.2 %ID
tissue uptake dose at 168 h [4]: 0.91 ± 0.03 %ID
tissue to tissue ratio ([4]; T/NT ratio Tumor/Bone): 183
tissue to tissue ratio [4, 5]: 220
tissue uptake at 2 h ([4]; Tissue biodistribution: Blood): 0.87 ± 0.21 %ID/g
tissue uptake at 6 h ([4]; Tissue biodistribution: Blood): 0.16 ± 0.04 %ID/g
tissue uptake at 24 h ([4]; Tissue biodistribution: Blood): 0.03 ± 0.01 %ID/g
tissue uptake at 72 h ([4]; Tissue biodistribution: Blood): 0.03 ± 0.01 %ID/g
tissue uptake at 168 h ([4]; Tissue biodistribution: Blood): 0.03 ± 0.01 %ID/g
tissue uptake at 2 h ([4]; Tissue biodistribution: Bone): 0.74 ± 0.16 %ID/g
tissue uptake at 6 h ([4]; Tissue biodistribution: Bone): 0.33 ± 0.11 %ID/g
tissue uptake at 24 h ([4]; Tissue biodistribution: Bone): 0.19 ± 0.01 %ID/g
tissue uptake at 72 h ([4]; Tissue biodistribution: Bone): 0.22 ± 0.02 %ID/g
tissue uptake at 168 h ([4]; Tissue biodistribution: Bone): 0.26 ± 0.04 %ID/g
tissue uptake at 2 h ([4]; Tissue biodistribution: Gland): 1.96 ± 0.74 %ID/g
tissue uptake at 6 h ([4]; Tissue biodistribution: Gland): 0.51 ± 0.1 %ID/g
tissue uptake at 24 h ([4]; Tissue biodistribution: Gland): 0.18 ± 0.04 %ID/g
tissue uptake at 72 h ([4]; Tissue biodistribution: Gland): 0.11 ± 0.01 %ID/g
tissue uptake at 168 h ([4]; Tissue biodistribution: Gland): 0.1 %ID/g
tissue uptake at 2 h ([4]; Tissue biodistribution: Heart): 1 ± 0.4 %ID/g
tissue uptake at 6 h ([4]; Tissue biodistribution: Heart): 0.26 ± 0.13 %ID/g
tissue uptake at 24 h ([4]; Tissue biodistribution: Heart): 0.11 %ID/g
tissue uptake at 72 h ([4]; Tissue biodistribution: Heart): 0.09 %ID/g
tissue uptake at 168 h ([4]; Tissue biodistribution: Heart): 0.11 %ID/g
tissue uptake at 2 h ([4]; Tissue biodistribution: Kidney): 133 ± 12.3 %ID/g
tissue uptake at 6 h ([4]; Tissue biodistribution: Kidney): 122 ± 20.9 %ID/g
tissue uptake at 24 h ([4]; Tissue biodistribution: Kidney): 15.7 ± 4.09 %ID/g
tissue uptake at 72 h ([4]; Tissue biodistribution: Kidney): 1.28 ± 0.08 %ID/g
tissue uptake at 168 h ([4]; Tissue biodistribution: Kidney): 0.69 ± 0.32 %ID/g
tissue uptake at 2 h ([4]; Tissue biodistribution: Liver): 0.58 ± 0.17 %ID/g
tissue uptake at 6 h ([4]; Tissue biodistribution: Liver): 0.33 ± 0.05 %ID/g
tissue uptake at 24 h ([4]; Tissue biodistribution: Liver): 0.23 ± 0.03 %ID/g
tissue uptake at 72 h ([4]; Tissue biodistribution: Liver): 0.18 ± 0.02 %ID/g
tissue uptake at 168 h ([4]; Tissue biodistribution: Liver): 0.15 ± 0.03 %ID/g
tissue uptake at 2 h ([4]; Tissue biodistribution: Lung): 2.97 ± 0.89 %ID/g
tissue uptake at 6 h ([4]; Tissue biodistribution: Lung): 0.75 ± 0.14 %ID/g
tissue uptake at 24 h ([4]; Tissue biodistribution: Lung): 0.18 ± 0.03 %ID/g
tissue uptake at 72 h ([4]; Tissue biodistribution: Lung): 0.08 ± 0.01 %ID/g
tissue uptake at 168 h ([4]; Tissue biodistribution: Lung): 0.1 ± 0.04 %ID/g
tissue uptake at 2 h ([4]; Tissue biodistribution: Muscle): 0.46 ± 0.09 %ID/g
tissue uptake at 6 h ([4]; Tissue biodistribution: Muscle): 0.14 ± 0.04 %ID/g
tissue uptake at 24 h ([4]; Tissue biodistribution: Muscle): 0.04 ± 0.01 %ID/g
tissue uptake at 72 h ([4]; Tissue biodistribution: Muscle): 0.03 %ID/g
tissue uptake at 168 h ([4]; Tissue biodistribution: Muscle): 0.04 ± 0.01 %ID/g
tissue uptake at 2 h ([4]; Tissue biodistribution: Spleen): 3.87 ± 1.15 %ID/g
tissue uptake at 6 h ([4]; Tissue biodistribution: Spleen): 1.05 ± 0.15 %ID/g
tissue uptake at 24 h ([4]; Tissue biodistribution: Spleen): 0.39 ± 0.14 %ID/g
tissue uptake at 72 h ([4]; Tissue biodistribution: Spleen): 0.31 ± 0.08 %ID/g
tissue uptake at 168 h ([4]; Tissue biodistribution: Spleen): 0.43 ± 0.13 %ID/g
tissue uptake at 2 h ([4]; Tissue biodistribution: Tumor): 30.8 ± 6.34 %ID/g
tissue uptake at 6 h ([4]; Tissue biodistribution: Tumor): 35.7 ± 5.05 %ID/g
tissue uptake at 24 h ([4]; Tissue biodistribution: Tumor): 37.9 ± 8.46 %ID/g
tissue uptake at 72 h ([4]; Tissue biodistribution: Tumor): 48.2 ± 10 %ID/g
tissue uptake at 168 h ([4]; Tissue biodistribution: Tumor): 44.3 ± 8.77 %ID/g
tissue to tissue ratio at 2 h ([4]; Tumor/Blood): 38.4 ± 18.7
tissue to tissue ratio at 6 h ([4]; Tumor/Blood): 237 ± 57.6
tissue to tissue ratio at 24 h ([4]; Tumor/Blood): 1150 ± 312
tissue to tissue ratio at 72 h ([4]; Tumor/Blood): 1690 ± 343
tissue to tissue ratio at 168 h ([4]; Tumor/Blood): 1630 ± 208
tissue to tissue ratio at 2 h ([4]; Tumor/Bone): 44.7 ± 20.4
tissue to tissue ratio at 6 h ([4]; Tumor/Bone): 117 ± 45.7
tissue to tissue ratio at 24 h ([4]; Tumor/Bone): 200 ± 55.6
tissue to tissue ratio at 72 h ([4]; Tumor/Bone): 223 ± 43.2
tissue to tissue ratio at 168 h ([4]; Tumor/Bone): 170 ± 19.3
tissue to tissue ratio at 2 h ([4]; Tumor/Kidney): 0.24 ± 0.07
tissue to tissue ratio at 6 h ([4]; Tumor/Kidney): 0.3 ± 0.05
tissue to tissue ratio at 24 h ([4]; Tumor/Kidney): 2.59 ± 1.05
tissue to tissue ratio at 72 h ([4]; Tumor/Kidney): 37.5 ± 6.4
tissue to tissue ratio at 168 h ([4]; Tumor/Kidney): 70.9 ± 22.8
